The values that follow come from article PMC11864197 (Science Advances, 2025).

Series [1] concerns the molecule itself. Put plainly: multiple angle light scattering.
A further series addresses DDA1 (human, UniProt Q9BW61 1-102). In words: cryo-EM structure.
Series [2] deals with Full-length DDB1-DET1-DDA1 complex co-expressed with Ube2e2 (human, UniProt Q7L5Y6;Q16531;Q9BW61). In words: SEC. Background: SEC sorts molecules by how far they enter the pores of the column.
Full-length DDB1-DET1-DDA1 complex co-expressed with Ube2e2, sequence (Q7L5Y6 whole entry, one chain of several): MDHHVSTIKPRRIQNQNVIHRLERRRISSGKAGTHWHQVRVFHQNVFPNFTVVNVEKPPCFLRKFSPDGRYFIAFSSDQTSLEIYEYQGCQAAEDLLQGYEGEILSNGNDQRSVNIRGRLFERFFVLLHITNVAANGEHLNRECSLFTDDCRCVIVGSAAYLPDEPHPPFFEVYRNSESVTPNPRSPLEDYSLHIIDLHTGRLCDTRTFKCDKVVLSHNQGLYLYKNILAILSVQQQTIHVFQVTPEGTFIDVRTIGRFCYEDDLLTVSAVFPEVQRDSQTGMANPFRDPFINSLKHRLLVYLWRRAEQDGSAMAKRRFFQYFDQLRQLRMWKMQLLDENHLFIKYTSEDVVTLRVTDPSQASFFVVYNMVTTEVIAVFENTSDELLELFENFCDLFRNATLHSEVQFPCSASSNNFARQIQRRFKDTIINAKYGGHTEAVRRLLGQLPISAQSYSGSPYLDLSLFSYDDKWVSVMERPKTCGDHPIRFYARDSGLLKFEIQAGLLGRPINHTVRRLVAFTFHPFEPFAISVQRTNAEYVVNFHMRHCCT

B1: COP1 RING domain (residues 126 to 208) (domain or fragment)
chain: SYEDKSNDFVCPICFDMIEEAYMTKCGHSFCYKCIHQSLEDNNRCPKCNYVVDNIDHLYPNFLVNELILKQKQRFEEKRFKLD
By stoichiometry N is commonly meant a count of units in the complex or per binding partner. For the molecule B1, in series [1], the “stoichiometry N” value came to 2.

B2: DDB1(ΔBPB) (natural protein)
chain: MSYNYVVTAQKPTAVNGCVTGHFTSAEDLNLLIAKNTRLEIYVVTAEGLRPVKEVGMYGKIAVMELFRPKGESKDLLFILTAKYNACILEYKQSGESIDIITRAHGNVQDRIGRPSETGIIGIIDPECRMIGLRLYDGLFKVIPLDRDNKELKAFNIRLEELHVIDVKFLYGCQAPTICFVYQDPQGRHVKTYEVSLREKEFNKGPWKQENVEAEASMVIAVPEPFGGAIIIGQESITYHNGDKYLAIAPPIIKQSTIVCHNRVDPNGSRYLLGDMEGRLFMLLLEKEEQMDGTVTLKDLRVELLGETSIAECLTYLDNGVVFVGSRLGDSQLVKLNVDSNEQGSYVVAMETFTNLGPIVDMCVVDLERQGQGQLVTCSGAFKEGSLRIIRNGIGIQKLHIRTVPLYESPRKICYQEVSQCFGVLSSRIEVQDTSGGTTALRPSASTQALSSSVSSSKLFSSSTAPHETSFGEEVEVHNLLIIDQHTFEVLHAHQFLQNEYALSLVSCKLGKDPNTYFIVGTAMVYPEEAEPKQGRIVVFQYSDGKLQTVAEKEVKGAVYSMVEFNGKLLASINSTVRLYEWTTEKELRTECNHYNNIMALYLKTKGDFILVGDLMRSVLLLAYKPMEGNFEEIARDFNPNWMSAVEILDDDNFLGAENAFNLFVCQKDSAATTDEERQHLQEVGLFHLGEFVNVFCHGSLVMQNLGETSTPTQGSVLFGTVNGMIGLVTSLSESWYNLLLDMQNRLNKVIKSVGKIEHSFWRSFHTERKTEPATGFIDGDLIESFLDISRPKMQEVVANLQYDDGSGMKREATADDLIKVVEELTRIH
As for B2, the binding result with DDA1 is “binds”.

B3: Full-length Ube2e2 co-expressed with the DDD complex (enzyme)
chain: MSTEAQRVDDSPSTSGGSSDGDQRESVQQEPEREQVQPKKKEGKISSKTAAKLSTSAKRIQKELAEITLDPPPNCSAGPKGDNIYEWRSTILGPPGSVYEGGVFFLDITFSPDYPFKPPKVTFRTRIYHCNINSQGVICLDILKDNWSPALTISKVLLSICSLLTDCNPADPLVGSIATQYMTNRAEHDRMARQWTKRYAT
As for B3, the binding result in series [2] is given as “binds”.
